Consider five molecules from patent US20220064216A1 (ANBITION S R L, published 2022).

Test [1] deals with T1, human recombinant receptor VEGFR-1, the form consisting of the seven extracellular domains of the receptor … (human, UniProt P17948 27-758).
T1 construct: Bought reagent; also called Flt-1; not shown: Fc domain of human IgG
The test can be described thus: competition ELISA, VEGFR-1-Fc coated, VEGF-A as competing ligand. On the procedure: The human recombinant receptor VEGFR-1, in particular the form consisting of the seven extracellular domains of the receptor fused to the Fc domain of human IgG (R&D Systems, cat No. 321-FL), was made to adhere in the wells of 96-well microplates at a concentration of 0.5 μg/ml in PBS pH 7.5 (100 μl/well) for 16 hours at room temperature (RT).
The binding reaction was conducted for one hour at 37° C., followed by one hour at room temperature.
(In general: ELISA stands for enzyme-linked immunosorbent assay.)

The target of test [2] is T2, human recombinant receptor VEGFR-1, the form consisting of the seven extracellular domains of the receptor fused to the Fc domain of human IgG (R&D Systems, cat No. 321-FL) (human), P17948.
T2 chain: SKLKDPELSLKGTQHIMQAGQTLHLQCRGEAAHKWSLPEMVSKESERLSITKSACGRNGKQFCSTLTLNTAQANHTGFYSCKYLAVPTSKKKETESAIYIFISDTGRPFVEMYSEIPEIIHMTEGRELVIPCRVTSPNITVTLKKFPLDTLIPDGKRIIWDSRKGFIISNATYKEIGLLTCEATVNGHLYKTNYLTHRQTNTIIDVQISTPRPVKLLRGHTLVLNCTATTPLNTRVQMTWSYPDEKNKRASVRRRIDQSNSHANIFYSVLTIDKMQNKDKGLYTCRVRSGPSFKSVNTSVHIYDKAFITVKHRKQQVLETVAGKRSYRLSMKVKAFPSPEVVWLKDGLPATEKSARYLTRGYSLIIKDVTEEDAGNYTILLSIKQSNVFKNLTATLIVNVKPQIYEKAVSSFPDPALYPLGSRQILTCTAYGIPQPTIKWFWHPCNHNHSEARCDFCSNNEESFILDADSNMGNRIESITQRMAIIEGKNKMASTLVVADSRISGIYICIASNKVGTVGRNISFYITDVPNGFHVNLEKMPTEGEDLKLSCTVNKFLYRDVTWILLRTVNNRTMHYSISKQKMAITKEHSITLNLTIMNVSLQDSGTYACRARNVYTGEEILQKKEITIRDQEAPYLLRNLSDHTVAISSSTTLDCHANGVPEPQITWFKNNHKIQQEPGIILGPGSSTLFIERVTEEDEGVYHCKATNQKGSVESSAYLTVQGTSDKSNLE
The test can be described thus: competition ELISA, VEGFR-1-Fc coated, PlGF as competing ligand.

Test [3] deals with T2, human recombinant receptor VEGFR-1, the …. Kind of test: competition ELISA, VEGFR-1-Fc coated, VEGF-A 5 ng/ml as competing ligand, peptide at 12500 nM.
The target is the same in test [4]. Kind of test: competition ELISA, VEGFR-1-Fc coated, PlGF 5 ng/ml as competing ligand, peptide at 6250 nM.
Test [5] shares this target. Kind of test: competition ELISA, VEGFR-1-Fc coated, PlGF 5 ng/ml as competing ligand, peptide at 1560 nM.
The target is the same in test [6]. Kind of test: competition ELISA, VEGFR-1-Fc coated, VEGF-A 5 ng/ml as competing ligand, peptide at 3125 nM.
Test [7] has the same target. The test can be described thus: competition ELISA, VEGFR-1-Fc coated, PlGF 5 ng/ml as competing ligand, peptide at 50000 nM.
For test [8] the target is unchanged. Kind of test: competition ELISA, VEGFR-1-Fc coated, VEGF-A as competing ligand.
For test [9] the target is unchanged. Kind of test: competition ELISA, VEGFR-1-Fc coated, VEGF-A 5 ng/ml as competing ligand, peptide at 6250 nM.
Test [10] shares this target. The test can be described thus: competition ELISA, VEGFR-1-Fc coated, PlGF 5 ng/ml as competing ligand, peptide at 780 nM.
Test [11] has the same target. The test can be described thus: competition ELISA, VEGFR-1-Fc coated, PlGF 5 ng/ml as competing ligand, peptide at 3125 nM.
For test [12] the target is unchanged. The test can be described thus: competition ELISA, VEGFR-1-Fc coated, VEGF-A 5 ng/ml as competing ligand, peptide at 1560 nM.
For test [13] the target is unchanged. The test can be described thus: competition ELISA, VEGFR-1-Fc coated, PlGF 5 ng/ml as competing ligand, peptide at 25000 nM.
The target is the same in test [14]. Kind of test: competition ELISA, VEGFR-1-Fc coated, PlGF 5 ng/ml as competing ligand, peptide at 12500 nM.
Test [15] shares this target. The test can be described thus: competition ELISA, VEGFR-1-Fc coated, VEGF-A 5 ng/ml as competing ligand, peptide at 25000 nM.
Test [16] shares this target. The test can be described thus: competition ELISA, VEGFR-1-Fc coated, VEGF-A 5 ng/ml as competing ligand, peptide at 780 nM.
Test [17] shares this target. The test can be described thus: competition ELISA, VEGFR-1-Fc coated, VEGF-A 5 ng/ml as competing ligand, peptide at 50000 nM.
Test [18] shares this target. Kind of test: competition ELISA, VEGFR-1-Fc coated, PlGF or VEGF-A as competing ligand; reference iVR1.

Square brackets hold non-standard residues; d marks the D form. Ends that are not written are not given here. * marks the point of attachment. Met(O2) = CS(=O)(=O)CC[C@H](N)C(=O)O; Cha = N[C@@H](CC1CCCCC1)C(=O)O; Bn = c1ccc(C*)cc1 Where only a bound is given, the exact number is not on record here.

B1: tetrameric peptide having formula (II) with Y2 = D-serine (peptide)
peptide: [dE]-Cys(Bn)-[Cha]
chain 1: Lys
chain 2: Lys-[dS]-NH2
modifications: also: branched tetramer: four arms on both amines of two Lys, each bonded to an amine of the Lys of chain 3
notes: Described only as a tetrameric peptide of formula (II) with Y2 different from D-cysteine
Consider B1, for which the IC50 (as a rule, the concentration that gives 50% inhibition) in test [1] is 2430 nM.

B2: tetrameric peptide having formula (II) with Y2 = L-cysteine (peptide)
peptide: [dE]-Cys(Bn)-[Cha]
chain 1: Lys
chain 2: Lys-Cys-NH2
modifications: also: branched tetramer: four arms on both amines of two Lys, each bonded to an amine of the Lys of chain 3
notes: as for B1
B2: the IC50 in [1] was 2030 nM.

B3: iVR1, tetrameric peptide of formula (IIc): [H-(R-Glu)-(S-Cys(Bzl))-(S-Cha)]4-Lys2-Lys-Gly-NH2 (peptide)
peptide: H-[dE]-Cys(Bn)-[Cha]
chain 1: Lys
chain 2: Lys-Gly-NH2
modifications: also: branched tetramer: four arms on alpha and epsilon amines of two Lys, each bonded to an amine of the Lys of chain 3
For the molecule B3, the IC50 in test [2] and in [8] was 10000 nM in each case. Further, the binding % (residual VEGF-A binding to VEGFR-1) turned out to be 37% in test [3]; 93.9% in test [6]; 66% in test [9]; 96.2% in [12]; 21.4% in test [15]; 98.4% in [16]. Moreover, the binding % (residual VEGF-A binding to VEGFR-1) in test [17] was 8.6%. The binding % (residual PlGF binding to VEGFR-1) in test [4] was 68.5%; in test [5], 101%; in [7] it was 26.3%; in test [10], 99.4%; in [11] it was 96.1%; in test [13] it was 36%. For the same molecule, the binding % (residual PlGF binding to VEGFR-1) in test [14] is 44.6%.

B4: iVR1-Cys, tetrameric peptide of formula (IIb): [H-(R-Glu)-(S-Cys(Bzl))-(S-Cha)]4-Lys2-Lys-(D-Cys)-NH2 (peptide)
peptide: H-[dE]-Cys(Bn)-[Cha]
chain 1: Lys
chain 2: Lys-[dC]-NH2
modifications: also: branched tetramer: four arms on alpha and epsilon amines of two Lys, each bonded to an amine of the Lys of chain 3
As for B4, the inhibitory capacity, fold against iVR1 in test [18] was found to be 10 fold. Also, the results for the IC50 in [2] and in [8] were less than 1000 nM and 1000 nM, respectively. In addition, the binding % (residual VEGF-A binding to VEGFR-1) amounted to 9.81% in test [3]; 21.7% in test [6]; 12.5% in [9]; 43.7% in test [12]; 7.99% in [15]; 92.3% in test [16]. The binding % (residual VEGF-A binding to VEGFR-1) in test [17] is 6.5%. Further, the binding % (residual PlGF binding to VEGFR-1) was 14.1% in [4]; 35.5% in test [5]; 9.18% in test [7]; 83.8% in test [10]; 25.5% in test [11]; 10.3% in test [13]. Moreover, the binding % (residual PlGF binding to VEGFR-1) in [14] amounted to 12.6%.

B5: tetrameric peptide having formula (II) with Y2 = L-methionine sulfone (peptide)
peptide: [dE]-Cys(Bn)-[Cha]
chain 1: Lys
chain 2: Lys-[Met(O2)]-NH2
modifications: also: branched tetramer: four arms on both amines of two Lys, each bonded to an amine of the Lys of chain 3
notes: as for B1
Regarding B5, in test [1], the IC50 was determined as 4620 nM.
